Reference: the supplement of paper PMC12783771
± gives the standard deviation of the averaged measurements.

B1: library; numbered along this chain (parent)
chain: MNIQIGELAKRTACPVVTIRFYEQEGLLPPPGRSRGNFRLYGEEHVERLQFIRHCRSLDMPLSDVRTLLSYRKRPDQDCGEVNMLLDEHIRQVESRIGALLELKHHLVELREACSGARPAQSCGILQGLSDCVCDTRGTTAHPSD

Key:
[1] = variants of: B1; assay: sfGFP reporter fluorescence (15 h) (µM FITC); higher = higher leak; conditions: library round: Round 0; ligand: none
Method in brief: (§1)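 Readout was endpoint sfGFP fluorescence, converted to µM FITC through standard curves. Reactions were 1 μL of BL21 Star (DE3) PANOx-SP extract with pPbrR-sfGFP reporter, 30 μg/mL GamS and linear PbrR templates normalized to 5 nM, containing 1 µM lead chloride, 30 µM zinc acetate or no metal. Incubation lasted 15 hr at 30 °C, with up to three biological replicates.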

[2] = variants of: B1; assay: sfGFP reporter fluorescence (15 h) (µM FITC); higher = stronger transcriptional activation; conditions: library round: Round 0
Method in brief: as §1

| Variant | sfGFP reporter fluorescence [1] | sfGFP reporter fluorescence ([2]; ligand: 1 µM Pb) | sfGFP reporter fluorescence ([2]; ligand: 30 µM Zn) |
| --- | --- | --- | --- |
| MNIQIGELAKRTACPVVTIRFYEQEGLLPPPGRSRGNFRLYGEEHVERLQFIRHCRSLDMPLSDVRTLLSYRKRPDQDCGEVFMLLDEHIRQVESRIGALLELKHHLVELREACSGARPAQSCGILQGLSDCVCDTRGTTAHPSD | 0.0588 ± 0.00078 | 0.07275 ± 0.00026 | 0.05882 ± 0.00026 |
| MAIQIGELAKRTACPVVTIRFYEQEGLLPPPGRSRGNFRLYGEEHVERLQFIRHCRSLDMPLSDVRTLLSYRKRPDQDCGEVNMLLDEHIRQVESRIGALLELKHHLVELREACSGARPAQSCGILQGLSDCVCDTRGTTAHPSD | 0.0517 ± 0.001 | 0.0614 ± 0.0065 | 0.801 ± 0.036 |
| MNIQIGELAKRTACPVVTIRFYEQEGLLPPPGRSRGNFRLYGEEHVERLQFIRHCRSLDMPLSDVRTLLSYRKRPDQDCGEVNMLLDEHIRQVESRIGALLELNHHLVELREACSGARPAQSCGILQGLSDCVCDTRGTTAHPSD | 0.0557 ± 0.0073 | 0.0823 ± 0.025 | 0.879 ± 0.15 |
| MNIQIGELAKRTACPVVTIRFYEQEGLLPPPGRSRGNFRLYGEEHVERLQFIRHCRSGDMPLSDVRTLLSYRKRPDQDCGEVNMLLDEHIRQVESRIGALLELKHHLVELREACSGARPAQSCGILQGLSDCVCDTRGTTAHPSD | 0.0548 ± 0.00078 | 0.0548 ± 0.0013 | 0.052 ± 0.001 |
| MNIQIGELAKRTACPVVTIRFYEQEGLLPPPGRSRGNFRLYGEEHAERLQFIRHCRSLDMPLSDVRTLLSYRKRPDQDCGEVNMLLDEHIRQVESRIGALLELKHHLVELREACSGARPAQSCGILQGLSDCVCDTRGTTAHPSD | 0.0619 ± 0.0031 | 0.0757 ± 0.0023 | 0.682 ± 0.097 |
| MNIQIGELAKRTACPVVTIRFYEQEGLLPPPGRSRGNFRLYGEEHVERLQFIRHCRSLDMPLSDVRTLLSYRKRPDQDCGEVNMLLDEHIRQVESRIGALLELKHHLVELREACSGARPAQSCGILQGLSDCVCDTRGTTAHPAD | 0.0586 ± 0.0036 | 0.0588 ± 0.0023 | 0.493 ± 0.16 |
| MNIQIGELAKRTACPVVTIRFYEQEGLLPPPGRSRYNFRLYGEEHVERLQFIRHCRSLDMPLSDVRTLLSYRKRPDQDCGEVNMLLDEHIRQVESRIGALLELKHHLVELREACSGARPAQSCGILQGLSDCVCDTRGTTAHPSD | 0.0605 ± 0.0026 | 0.0691 ± 0.0023 | 0.275 ± 0.031 |
